Laboratory results published in paper PMC5789848 (2018).
Where a chain is given by its changes, count along the chain named. Names may count otherwise.

B1: UPF1-HD_(DE636AA), histidine-tagged (domain or fragment)
chain: RYEDAYQYQNIFGPLVKLEADYDKKLKESQTQDNITVRWDLGLNKKRIAYFTLPKTDSDMRLMQGDEICLRYKGDLAPLWKGIGHVIKVPDNYGDEIAIELRSSVGAPVEVTHNFQVDFVWKSTSFDRMQSALKTFAVDETSVSGYIYHKLLGHEVEDVIIKCQLPKRFTAQGLPDLNHSQVYAVKTVLQRPLSLIQGPPGTGKTVTSATIVYHLARQGNGPVLVCAPSNIAVDQLTEKIHQTGLKVVRLCAKSREAIDSPVSFLALHNQIRNMDSMPELQKLQQLKDETGELSSADEKRYRALKRTAERELLMNADVICCTCVGAGDPRLAKMQFRSILIAASTQATEPECMVPVVLGAKQLILVGDHCQLGPVVMCKKAAKAGLSQSLFERLVVLGIRPIRLQVQYRMHPALSAFPSNIFYEGSLQNGVTAADRVKKGFDFQWPQPDKPMFFYVTQGQEEIASSGTSYLNRTEAANVEKITTKLLKAGAKPDQIGIITPYEGQRSYLVQYMQFSGSLHTKLYQEVEIASVDAFQGREKDFIILSCVRANEHQGIGFLNDPRRLNVALTRARYGVIIVGNPKALSKQPLWNHLLNYYKEQKVLVEGPLNNLRESLMQFS
B2: UPF1-HD_(R843C), histidine-tagged (domain or fragment)
chain: B1 chain with A342D, A343E, R549C
B3: UPF1-HD_(R843S), histidine-tagged (domain or fragment)
chain: B1 chain with A342D, A343E, R549S
B4: UPF1 helicase core domain (UPF1-HD; aa 295-914), C-terminal hexahistidine (domain or fragment)
chain: B1 chain with A342D, A343E

These binders were tested against T1, GST-Tax_(CACA) (HTLV-1 Tax with C23 and C29 changed to alanine, N-terminal GST fusion) (HTLV-1, UniProt P03409 1-353, C23A | C29A) (assay: BLI).

Row | Binder | Kd [nM]
1 | B1 | 31.4
2 | B2 | 53.8
3 | B3 | 66.6
4 | B4 | 16.6

Biological target: T1, GST-Tax_(CACA) (HTLV-1 Tax with C23 and …)
Test: BLI
Remark: another data set of the same source

Row | Binder | koff [s⁻¹]
5 | B1 | 0.000283
6 | B2 | 0.000437
7 | B3 | 0.000877
8 | B4 | 0.00038
